We go through one molecule from patent US20180125973A1 (AstraZeneca / MedImmune, published 2018).

Test [1] addresses T1, Murine CD73 on cells (murine, UniProt Q61503 29-551).
T1 sequence (looked up): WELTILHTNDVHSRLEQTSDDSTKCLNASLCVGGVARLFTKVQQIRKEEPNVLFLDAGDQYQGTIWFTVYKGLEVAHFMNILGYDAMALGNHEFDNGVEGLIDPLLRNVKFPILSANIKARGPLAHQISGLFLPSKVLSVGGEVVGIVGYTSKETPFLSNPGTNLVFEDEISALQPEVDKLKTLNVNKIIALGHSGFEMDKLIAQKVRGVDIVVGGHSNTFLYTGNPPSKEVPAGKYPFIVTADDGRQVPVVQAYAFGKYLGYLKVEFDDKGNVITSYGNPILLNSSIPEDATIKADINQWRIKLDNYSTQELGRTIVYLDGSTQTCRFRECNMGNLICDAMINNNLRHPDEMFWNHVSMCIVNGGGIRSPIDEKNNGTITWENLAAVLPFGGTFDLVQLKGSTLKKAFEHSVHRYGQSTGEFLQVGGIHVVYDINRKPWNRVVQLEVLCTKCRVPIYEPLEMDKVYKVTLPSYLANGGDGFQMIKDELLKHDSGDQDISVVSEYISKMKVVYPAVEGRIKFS
Put plainly: cell-based or functional assay.

Test [2] has as its target T2, Human CD73 on cells (human, UniProt P21589 27-549).
T2 sequence: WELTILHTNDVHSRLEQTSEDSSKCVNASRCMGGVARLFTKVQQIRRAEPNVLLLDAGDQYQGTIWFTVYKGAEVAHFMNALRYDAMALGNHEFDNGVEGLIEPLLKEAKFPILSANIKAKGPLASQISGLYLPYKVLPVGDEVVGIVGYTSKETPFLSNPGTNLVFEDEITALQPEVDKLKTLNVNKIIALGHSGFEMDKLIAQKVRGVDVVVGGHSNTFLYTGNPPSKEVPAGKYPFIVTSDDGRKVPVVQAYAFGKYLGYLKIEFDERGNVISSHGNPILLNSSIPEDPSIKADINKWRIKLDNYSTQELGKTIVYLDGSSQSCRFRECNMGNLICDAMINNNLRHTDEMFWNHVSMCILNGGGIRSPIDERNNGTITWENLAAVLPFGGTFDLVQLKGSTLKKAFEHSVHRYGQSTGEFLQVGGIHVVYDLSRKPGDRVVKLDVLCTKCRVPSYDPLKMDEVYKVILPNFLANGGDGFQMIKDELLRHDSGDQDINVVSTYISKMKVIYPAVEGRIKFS
Nature of the test: cell-based or functional assay.

B1: MEDI9447 (antibody, human IgG1, lambda, V domains shown)
VH: EVQLLESGGGLVQPGGSLRLSCAASGFTFSSYAYSWVRQAPGKGLEWVSAISGSGGRTYYADSVKGRFTISRDNSKNTLYLQMNSLRAEDTAVYYCARLGYGRVDEWGRGTLVTVSS
VL: QSVLTQPPSASGTPGQRVTISCSGSLSNIGRNPVNWYQQLPGTAPKLLIYLDNLRLSGVPDRFSGSKSGTSASLAISGLQSEDEADYYCATWDDSHPGWTFGGGTKLTVLG
Turning to B1, the “Antibody-mediated internalization of cytotoxic FabZAP reagent into 4T1 cells, EC50” value in test [1] stood at 18.5 pM. In addition, the “Antibody-mediated internalization of cytotoxic FabZAP reagent into MDA-MB-231 cells, EC50” value in test [2] was found to be 3.5 pM.
